From article PMC3702667

Columns and labels:
[1] = biological target: Fluorescently labeled RECQL5_(1–620) (human) (UniProt O94762); experiment: native gel or EMSA
[2] = biological target: RECQL5 KIX domain (RECQL5_(515–620)) (human) (UniProt O94762); experiment: SAXS
[3] = biological target: RECQL5 KIX domain (RECQL5_(515–620)) (human) (UniProt O94762); experiment: crystal structure

Fluorescently labeled RECQL5_(1–620) (human), sequence (O94762 1-620): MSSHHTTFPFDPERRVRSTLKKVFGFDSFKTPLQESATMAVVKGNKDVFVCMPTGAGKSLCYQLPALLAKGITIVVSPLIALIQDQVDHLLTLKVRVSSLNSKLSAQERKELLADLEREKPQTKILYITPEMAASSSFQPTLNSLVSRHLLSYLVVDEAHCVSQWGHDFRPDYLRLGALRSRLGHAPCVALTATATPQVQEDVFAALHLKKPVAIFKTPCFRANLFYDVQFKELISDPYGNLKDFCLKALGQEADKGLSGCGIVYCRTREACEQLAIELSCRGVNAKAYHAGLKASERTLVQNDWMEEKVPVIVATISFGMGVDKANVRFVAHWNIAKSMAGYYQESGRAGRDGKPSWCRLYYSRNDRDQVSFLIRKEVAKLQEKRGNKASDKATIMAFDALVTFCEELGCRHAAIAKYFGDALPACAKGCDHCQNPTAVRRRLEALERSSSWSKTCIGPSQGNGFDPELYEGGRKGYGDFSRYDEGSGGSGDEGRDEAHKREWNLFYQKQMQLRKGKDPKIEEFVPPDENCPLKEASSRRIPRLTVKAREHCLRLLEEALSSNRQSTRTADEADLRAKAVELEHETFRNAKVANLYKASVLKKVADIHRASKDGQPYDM

Row | Kd [1] | stoichiometry N [2] | stoichiometry N [3] | Substance
1 | 40 nM | – | – | human RNA polymerase II (from UniProt P24928;P30876) (complex)
2 | – | 2 | 2 | RECQL5 KIX domain (RECQL5_(515–620)) (from UniProt O94762 515-620) (domain or fragment)
